In patent US8481255B2, “Scytovirin domain 1 related polypeptides” (The United States of America, as represented by the …, priority 2005, dated 2013):

B1: scytovirin: antiviral scytovirin polypeptide, SEQ ID NO: 4 (protein, listed as Scytonema varium)
chain: GSGPTYCWNEANNPGGPNRCSNNKQCDGARTCSSSGFCQGTSRKPDPGPKGPTYCWDEAKNPGGPNRCSNSKQCDGARTCSSSGFCQGTAGHAAA

Legend:
HIV-1 gp41 ectodomain = HIV-1 gp41 ectodomain (Human immunodeficiency virus type 1 group M subtype B, UniProt P03375); settings: 100 ng/well gp41, absorbance at 450 nm
Description: (§1) Briefly, the 100 ng/well of either gp120 and gp41 proteins was bound to a 96-well plate, which was then rinsed with PBS containing 0.05% Tween 20 (TPBS) and blocked with BSA. Between each subsequent step, the plate was again rinsed with TPBS (x3). […] Upon addition of the horseradish peroxidase substrate buffer and color formation, the reaction was stopped by the addition of 2M H2SO4 (after 5 minutes for the gp120 plate and 15 minutes for the gp41 plate) and absorbance was measured at 450 nm for each well.

HIV-1 gp120 = HIV-1 gp120 (Human immunodeficiency virus type 1 group M subtype B, UniProt P03375); settings: 100 ng/well gp120, absorbance at 450 nm
Description: as §1

gp41 = settings: various concentrations of oligomannose-8
Description: (§2) Scytovirnin specifically binds to a α-1-2, α1-2, α1-6-linked tetramannoside, a substructure of oligomannose-8 and -9 found on HIV envelope glycoproteins gp120 and gp41 (Adams et al., Chem. Biol., 11(6): 875-881 (2004)). […] Briefly, a 96-well plate was prepared as described in Example 1 with glycosylated gp120 or gp41 and 100 ng/well of scytovirin or a scytovirin-derived peptide. […] Each well also contained (a) various concentrations of oligomannose-8, (b) 100 μM of glucose, mannose, galactose, xylose, or N-acytylglucosamine, or (c) 100 μg/well α-acid glycoprotein (to act as a carrier for sialic acid). The plate was then washed and visualized using anti-scytovirin polyclonal antibodies as described in Example 1.

HIV gp120 = settings: 100 μM sugar or 100 μg/well α-acid glycoprotein; 100 ng/well peptide
Description: as §2

HIV-1RF = test: XTT-tetrazolium based anti-HIV assay, acute HIV-1 infection in CEM-SS cells; assay type: cell-based; settings: T-tropic laboratory strain HIV-1RF in CEM-SS cells; read-out: EC50 against HIV-1RF
Description: (§3) The protocol followed was the same as described in Gulakowski et al., J. Virol. Methods, 33: 87-100 (1991).
The deletion mutants were subjected to the XTT-tetrazolium based assay as described in Example 2.

CEM-SS cells = tested on: CEM-SS cells
Description: as §3

Molecule	binding affinity to gp41 (ELISA) (HIV-1 gp41 ectodomain)	binding affinity to gp120 (ELISA) (HIV-1 gp120)	inhibition of binding to gp41 by oligomannose-8 (gp41)	inhibition of binding to gp120 by glucose, mannose, galactose, xylose, N-acytylglucosamine, α-acid glycoprotein with sialic acid (HIV gp120)	EC50 (HIV-1RF)	toxicity to the CEM-SS cell line, not detected at concentrations up to (CEM-SS cells)
SD1: polypeptide of SEQ ID NO: 1, derived from amino acids 1-48 of scytovirin (scytovirin domain 1) (GSGPTYSWNEANNPGGPNRCSNNKQCDGARTCSSSGFCQGTSRKPDPG)	approximately the same affinity	approximately the same affinity	able to inhibit the binding of SD1 to gp41 in a concentration-dependent manner	not able to inhibit binding	6.6 nM	> 10,000 nM
B1	approximately the same affinity	approximately the same affinity	–	–	7.5 nM	> 10,000 nM
